Results: patent US20240010735A1 (EISAI R AND D MANAGEMENT, published 2024)

B1: mouse anti-EphA4 monoclonal antibody (antibody A) (antibody, mouse IgG1, kappa, V domains shown)
VH: QVQLKQSGPSLVQPSQSLSITCTVSGFSLTRYGVHWVRQSPGKGLEWLGVIWRGGSTDYNAAFMSRLSITKDNSKSQVFFKMNSLQADDTAIYYCAKESLFGVYYDYGYYSMDYWGQGTSVTVSS
VL: DIQMTQSPSSLSASLGERVSLTCRASQEISGYLSWLQQKPDGTIKRLIYAASTLDSGVPKRFSGSRSGSDYSLTISSLESEDFADYYCLQYASYPLTFGAGTKLELKR
notes: purified from hybridoma supernatant
B2: humanized anti-EphA4 monoclonal antibody (antibody B) (antibody, human IgG2, V domains shown)
VH: QVQLVESGGGVVQPGRSLRLSCAVSGFSLTRFGVHWVRQAPGKGLEWVAVIWRGGSTDYNAAFMSRLTISKDNSKNTVYLQMNSLRAEDTAVYYCAKESLFGVYYDYGYYSMDYWGQGTTVTVSS
VL: DIQMTQSPSSLSASVGDRVTITCRASQEISGYLSWLQQKPGKAPKRLIYAASTLDSGVPSRFSGSRSGTEYTLTISSLQPEDFATYYCLQYASYPLTFGGGTKVEIKR
notes: expressed in Expi293F cells; also called humanized antibody of antibody A; HK2-42 / L1-8

Key:
MBP = experiment: ELISA: human EphA4 domain-MBP-His proteins (10 nM) captured on anti-6-His antibody, antibody A 10 nM, HRP anti-mouse IgG Fc fragment antibody, OD450-OD650
Method: For antibody A, the evaluation of binding activity with various domains in human EphA4 was carried cut according to the following steps.
(§1) Rabbit anti-6-His antibodies (Bethyl Laboratories) were coated onto the wells of a 96-well plate (Nunc). After incubating at 4° C. overnight, the wells were blocked at room temperature for 1 hour by 1% Block Ace (DS Pharma Biomedical). After washing twice with 0.02% Tween 20/PBS (Nacalai Tesque), human EphA4 extracellular region-MBP-His protein, human EphA4 ligand binding domain-MBP-His protein, human EphA4 fibronectin type III domain 1-NBP-His protein, and human EphA4 fibronectin type III domain 2-MBP-His protein (final concentration 10 nM) were seeded into the wells, and incubated at room temperature for 1 hour. After washing 3 times, antibody A (final concentration 10 nM) was supplemented to the wells, and incubated at room temperature for 1 hour. Horseradish peroxidase-labeled goat anti-mouse IgG Fcγ fragment antibody (Jackson ImmunoResearch Laboratories) was added, and incubated at room temperature for 1 hour. After washing 5 times, TMB solution (KPL) was added to the wells, and upon confirmation of modest coloring, an equal amount of quenching solution (2 N H₂SO₄, Wako Pure Chemicals) was added to the wells, and absorbance at 450 nm and 650 nm were read by a microplate reader (PerkinElmer).

[1] = target: T1, human EphA4 extracellular region-SEAP-His protein (human, UniProt P54764 20-547); experiment: SPR, Biacore T200; EphA4 extracellular region-SEAP-His captured on anti-His chip, antibody as analyte, 1:1 model
T1 construct: also called human EphA4 extracellular region-SEAP-His 10; not shown: secretory alkaline phosphatase (SEAP); histidine tag
Method: The binding affinity of antibody A against mouse and human EphA4 was determined by surface plasmon resonance (SPR method) employing Biacore T200 (GE Healthcare). First, anti-His antibodies (GE Healthcare, 28-9950-56) were fixed to a sensor chip CM5. Fixation was carried out by amine coupling method employing N-hydroxysuccinimide (NHS) and N-ethyl-N′-(3-dimethylaminopropyl) carbodiimide hydrochloride salt (EDC), and ethanolamine was employed for blocking (the sensor chip and reagents for fixation are all from GE Healthcare). This was diluted with the fixation buffer (10 mM sodium acetate, pH 4.5) to 3.5 μg/mL, and fixed onto the sensor chip according to the protocol accompanying Biacore T200. Mouse or human EphA4 extracellular region-SEAP-His 10 was diluted with the running buffer HBS-EP (GE Healthcare, BR-1001-88), and the solution was sent and captured onto the flow cell for 120 seconds (about 10 RU of captured amount). Subsequently, antibody A serially diluted to a range of 100, 50, 25, 12.5, 6.3, 3.2, 1.6, 0 nM with HBS-EP was added to the sensor chip for 120 seconds, and the binding reaction curve at the time of addition (binding phase, 120 seconds) and after completing the addition (dissociation phase, 600 seconds) was sequentially observed. Upon completion of each observation, 4 M MgCl₂ (60 seconds, Wako Pure Chemicals) was added to regenerate the sensor chip. Fitting analysis by 1:1 binding model employing the software accompanying the system, BIA evaluation software, was carried out against the binding reaction curve obtained, and the binding affinity (KD=kd/ka) against mouse and human EphA4 was calculated.
The binding affinity of antibody B obtained in Example 1 against human EphA4 was determined by surface plasmon resonance (SPR method) employing Biacore T200 (GE Healthcare). First, anti-His antibodies (GE Healthcare, 28-9950-56) were fixed to a sensor chip CMS. […]

[2] = target: T2, human EphA4 fibronectin type III domain 2-MBP-His protein (human, UniProt P54764 436-547); experiment: ELISA; domain-MBP-His protein captured by anti-6-His antibody
T2 construct: also called fibronectin type III domain 2 (FN2); not shown: histidine tag
Method: as §1
as §1, with “domain 1-MBP-His” for “domain 1-NBP-His”, “antibody B” for “antibody A”, “peroxidase-labeled rabbit anti-human” for “peroxidase-labeled goat anti-mouse”, “IgG Fey” for “IgG Fcγ”, “hour.” for “hour. After washing 5 times, TMB solution (KPL) was added to the wells, and upon confirmation of modest coloring, an equal amount of quenching solution (2 N H₂SO₄, Wako Pure Chemicals) was added to the wells, and absorbance at 450 nm and 650 nm were read by a microplate reader (PerkinElmer).”

[3] = target: T3, human EphA4 fibronectin type III domain 1-MBP-His protein (human, UniProt P54764 205-440); experiment: as above
T3 construct: also called fibronectin type III domain 1 (FN1); not shown: histidine tag
Method: as §1
as §1, with “domain 1-MBP-His” for “domain 1-NBP-His”, “antibody B” for “antibody A”, “peroxidase-labeled rabbit anti-human” for “peroxidase-labeled goat anti-mouse”, “IgG Fey” for “IgG Fcγ”, “hour.” for “hour. After washing 5 times, TMB solution (KPL) was added to the wells, and upon confirmation of modest coloring, an equal amount of quenching solution (2 N H₂SO₄, Wako Pure Chemicals) was added to the wells, and absorbance at 450 nm and 650 nm were read by a microplate reader (PerkinElmer).”

[4] = target: T4, mouse EphA4 extracellular region-Fc-His protein (mouse; human, UniProt Q03137 20-547); experiment: ELISA; Eph receptor extracellular region-Fc-His captured by anti-6-His antibody, antibody at 10 µg/mL
T4 construct: Used as culture supernatant of transfected cells; not shown: Fc region of human IgG1; histidine tag
Method: For antibody B, the evaluation of the binding activity of mouse Eph receptor was carried out according to the following steps.
Rabbit anti-6-His antibodies (Bethyl Laboratories) were coated onto the wells of a 96-well plate (Nunc). After incubating at 4° C. overnight, the wells were blocked at room temperature for 1 hour by 1% Block Ace (DS Pharma Biomedical). After washing 3 times with 0.05% Tween 20/PBS (Thermo […]), each Eph receptor of mouse extracellular region-Fc-His protein (final concentration 1 nM) was seeded into each well, and incubated at room temperature for 1 hour. After washing 3 times, human IgG solution (100 μg/mL, Sigma) and antibody B (10 μg/mL) were supplemented to the wells, and incubated at room temperature for 1 hour. Horseradish peroxidase-labeled goat anti-human Kappa Light Chain antibody (IBL) was added, and incubated at room temperature for 1 hour. After washing 3 times, TMBZ (3,3′,5,5′-tetramethylbenzidine, Sigma) solution was added to the wells, and upon confirmation of modest coloring, an equal amount of quenching solution (1 N H₂SO₄, Wako Pure Chemicals) was added to the wells, and absorbance at 450 nm was read by a microplate reader (PerkinElmer).

T2 sequence (P54764 436-547 limits assumed): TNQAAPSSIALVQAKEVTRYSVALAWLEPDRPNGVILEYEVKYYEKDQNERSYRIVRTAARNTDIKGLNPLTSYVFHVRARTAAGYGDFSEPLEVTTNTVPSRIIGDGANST
T3 sequence (P54764 205-440 limits assumed): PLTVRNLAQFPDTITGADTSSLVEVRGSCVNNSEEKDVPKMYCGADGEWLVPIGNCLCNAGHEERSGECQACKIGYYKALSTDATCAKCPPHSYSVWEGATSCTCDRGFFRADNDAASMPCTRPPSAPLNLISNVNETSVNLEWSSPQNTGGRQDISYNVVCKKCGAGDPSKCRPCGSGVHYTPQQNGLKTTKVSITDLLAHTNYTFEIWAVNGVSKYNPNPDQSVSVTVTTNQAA
T1 sequence (P54764 20-547): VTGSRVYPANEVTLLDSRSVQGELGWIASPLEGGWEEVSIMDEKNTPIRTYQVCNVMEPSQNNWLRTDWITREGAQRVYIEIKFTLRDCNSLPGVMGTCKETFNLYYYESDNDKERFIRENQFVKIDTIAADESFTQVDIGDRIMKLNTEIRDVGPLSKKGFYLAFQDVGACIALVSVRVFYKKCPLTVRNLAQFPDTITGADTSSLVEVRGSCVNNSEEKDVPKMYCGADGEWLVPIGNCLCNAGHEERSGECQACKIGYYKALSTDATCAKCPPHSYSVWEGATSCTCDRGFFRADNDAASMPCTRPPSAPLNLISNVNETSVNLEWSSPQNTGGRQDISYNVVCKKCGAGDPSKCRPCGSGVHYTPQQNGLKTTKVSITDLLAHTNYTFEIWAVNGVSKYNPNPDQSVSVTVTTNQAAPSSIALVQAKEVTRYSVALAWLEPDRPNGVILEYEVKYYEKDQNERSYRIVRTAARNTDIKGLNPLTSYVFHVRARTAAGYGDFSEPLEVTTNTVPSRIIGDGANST
T4 sequence (Q03137 20-547): as the sequence (P54764 20-547) above, with P59A, N121S, V124G, R250Q, S251N, T270S, K378R, N406S counted along it

Binder	binding result (MBP)	Kd [1] [nM]	binding result [2]	binding result [3]	binding result [4]
B1	no binding (tested: 10 nM)	1.19	no binding (tested: 10 nM)	no binding (tested: 10 nM)	–
B2	–	1.34	no binding (tested: 10 nM)	no binding (tested: 10 nM)	binds
